Assay [1] concerns the target ΔF508 CFTR (Homo sapiens (Human)) (UniProt P13569). The experiment in a line: CFTR co-IP and Hsp90 immunoblot; HEK293 ΔF508 cells, ~60% knock-down of Aha1. (In general: In western blotting, separated proteins are transferred to a membrane and probed.)
Assay [2] concerns the target wild-type cystic fibrosis transmembrane conductance regulator (CFTR) (Homo sapiens (Human)) (UniProt P13569). In words: CFTR co-IP, MudPIT MS; HT29 cells.
Assay [3] has the same target. In words: CFTR co-IP, MudPIT MS; BHK cells.
Assay [4] shares this target. In words: CFTR co-IP, MudPIT MS; Calu-3 cells.
For assay [5] the target is unchanged. In words: CFTR co-IP, MudPIT MS; BHK wt, Calu-3, HT29, T84.
Assay [6] concerns the target ΔF508 CFTR (Homo sapiens (Human)) (UniProt P13569). In words: CFTR co-IP, MudPIT MS; ΔF508.

Sequence of wild-type cystic fibrosis transmembrane conductance regulator (CFTR) (Homo sapiens (Human)) (P13569 whole entry): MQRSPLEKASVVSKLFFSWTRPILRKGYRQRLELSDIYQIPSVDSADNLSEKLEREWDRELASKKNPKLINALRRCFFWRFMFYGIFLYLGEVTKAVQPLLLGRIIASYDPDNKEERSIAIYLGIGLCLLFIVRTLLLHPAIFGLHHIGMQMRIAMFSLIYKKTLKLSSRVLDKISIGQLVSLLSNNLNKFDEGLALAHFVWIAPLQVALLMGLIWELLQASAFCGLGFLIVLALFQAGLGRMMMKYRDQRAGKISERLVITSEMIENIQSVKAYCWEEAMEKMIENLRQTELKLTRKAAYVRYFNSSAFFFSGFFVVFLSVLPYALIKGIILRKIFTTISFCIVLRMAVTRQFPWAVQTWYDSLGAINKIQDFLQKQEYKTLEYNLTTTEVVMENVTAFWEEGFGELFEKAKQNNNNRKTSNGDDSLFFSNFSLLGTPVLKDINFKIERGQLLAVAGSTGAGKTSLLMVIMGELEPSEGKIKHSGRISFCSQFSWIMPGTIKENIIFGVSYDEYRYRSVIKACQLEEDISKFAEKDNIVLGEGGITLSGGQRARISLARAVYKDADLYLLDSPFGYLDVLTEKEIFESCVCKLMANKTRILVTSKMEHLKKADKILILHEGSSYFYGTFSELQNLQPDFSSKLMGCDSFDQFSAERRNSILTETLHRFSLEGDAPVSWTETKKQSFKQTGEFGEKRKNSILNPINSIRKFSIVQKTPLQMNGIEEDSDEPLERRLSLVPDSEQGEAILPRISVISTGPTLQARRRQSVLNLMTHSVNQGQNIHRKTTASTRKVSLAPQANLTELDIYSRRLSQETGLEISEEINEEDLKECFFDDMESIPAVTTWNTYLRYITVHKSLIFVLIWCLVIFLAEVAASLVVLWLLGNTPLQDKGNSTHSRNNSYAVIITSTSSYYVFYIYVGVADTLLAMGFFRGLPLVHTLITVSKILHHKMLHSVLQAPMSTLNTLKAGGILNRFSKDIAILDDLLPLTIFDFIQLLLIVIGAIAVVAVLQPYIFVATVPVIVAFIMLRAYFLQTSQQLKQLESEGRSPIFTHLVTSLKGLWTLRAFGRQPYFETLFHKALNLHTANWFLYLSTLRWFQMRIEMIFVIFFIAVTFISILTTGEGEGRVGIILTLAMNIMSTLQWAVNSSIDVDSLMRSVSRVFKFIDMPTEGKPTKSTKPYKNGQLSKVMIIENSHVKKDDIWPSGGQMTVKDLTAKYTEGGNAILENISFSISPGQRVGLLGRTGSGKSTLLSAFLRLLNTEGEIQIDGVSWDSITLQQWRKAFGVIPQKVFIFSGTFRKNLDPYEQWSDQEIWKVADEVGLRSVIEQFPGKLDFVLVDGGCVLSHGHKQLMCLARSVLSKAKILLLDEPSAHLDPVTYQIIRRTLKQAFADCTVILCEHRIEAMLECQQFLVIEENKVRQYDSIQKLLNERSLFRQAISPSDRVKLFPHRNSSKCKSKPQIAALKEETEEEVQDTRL
Sequence of ΔF508 CFTR (Homo sapiens (Human)) (P13569 other isoform, or with tags, fused parts or gaps mutant limits assumed): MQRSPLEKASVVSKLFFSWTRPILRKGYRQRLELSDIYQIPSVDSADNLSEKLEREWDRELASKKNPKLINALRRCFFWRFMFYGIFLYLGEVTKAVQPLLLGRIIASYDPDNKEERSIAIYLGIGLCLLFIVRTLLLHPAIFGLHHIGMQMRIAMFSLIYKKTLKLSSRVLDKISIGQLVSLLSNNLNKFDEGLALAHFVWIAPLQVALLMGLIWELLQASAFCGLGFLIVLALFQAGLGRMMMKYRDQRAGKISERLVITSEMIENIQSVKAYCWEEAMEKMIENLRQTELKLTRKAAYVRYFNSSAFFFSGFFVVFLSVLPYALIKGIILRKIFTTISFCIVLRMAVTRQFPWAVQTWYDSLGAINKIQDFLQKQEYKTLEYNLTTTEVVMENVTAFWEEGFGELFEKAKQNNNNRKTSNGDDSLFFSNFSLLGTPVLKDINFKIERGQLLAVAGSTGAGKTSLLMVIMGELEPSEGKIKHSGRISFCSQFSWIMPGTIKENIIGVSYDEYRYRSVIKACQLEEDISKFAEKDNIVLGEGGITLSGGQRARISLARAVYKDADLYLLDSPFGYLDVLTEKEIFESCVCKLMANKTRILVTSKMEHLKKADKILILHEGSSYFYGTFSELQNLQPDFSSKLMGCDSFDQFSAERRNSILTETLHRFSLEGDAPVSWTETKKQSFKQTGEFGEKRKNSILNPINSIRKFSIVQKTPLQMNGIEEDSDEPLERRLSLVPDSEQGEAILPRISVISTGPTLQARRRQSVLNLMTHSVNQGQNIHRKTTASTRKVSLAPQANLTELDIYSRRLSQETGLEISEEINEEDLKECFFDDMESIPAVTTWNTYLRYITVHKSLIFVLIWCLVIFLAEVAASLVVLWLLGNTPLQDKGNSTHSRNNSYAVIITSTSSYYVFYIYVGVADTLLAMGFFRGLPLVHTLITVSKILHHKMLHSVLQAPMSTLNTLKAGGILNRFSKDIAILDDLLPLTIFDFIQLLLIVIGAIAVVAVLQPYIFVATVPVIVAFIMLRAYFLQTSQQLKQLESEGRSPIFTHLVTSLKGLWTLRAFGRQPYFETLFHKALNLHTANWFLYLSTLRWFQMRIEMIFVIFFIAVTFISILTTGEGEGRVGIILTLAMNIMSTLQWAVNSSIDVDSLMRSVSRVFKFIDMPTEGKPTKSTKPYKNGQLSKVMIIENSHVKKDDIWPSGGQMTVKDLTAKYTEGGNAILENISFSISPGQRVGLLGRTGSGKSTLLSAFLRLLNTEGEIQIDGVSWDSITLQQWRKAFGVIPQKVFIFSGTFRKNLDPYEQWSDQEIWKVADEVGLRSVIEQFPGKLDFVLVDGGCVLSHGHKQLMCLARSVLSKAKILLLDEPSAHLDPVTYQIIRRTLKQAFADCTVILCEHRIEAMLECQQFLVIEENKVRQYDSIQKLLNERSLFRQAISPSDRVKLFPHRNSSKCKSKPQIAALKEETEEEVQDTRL

Turning to Hsp90, in assay [1], the decrease of bound Hsp90 (ratio of Hsp90 to CFTR in the immunoprecipitate) after Aha1 dsRNA against scrambled control lay in the range of 50 to 60%.
As to NHERF-1 (from UniProt O14745 2-358), in assay [2], the % sequence coverage amounted to 11%, the total peptide spectra worked out at 2 spectra and the unique peptide spectra is 2 spectra. In assay [3], this substance showed a % sequence coverage of 20%, a total peptide spectra of 6 spectra and a unique peptide spectra of 5 spectra.
In the case of NHERF-2 (from UniProt Q15599 1-337), in assay [2], the % sequence coverage was 20%, the total peptide spectra stood at 10 spectra and the unique peptide spectra is 7 spectra. Besides, in assay [4], the % sequence coverage stood at 14%, the total peptide spectra worked out at 5 spectra and the unique peptide spectra was determined as 4 spectra.
In assay [5], “Sec61 alpha subunit isoform 1 (from UniProt P61619 1-476)” showed a % sequence coverage of 11%, a total peptide spectra of 7 spectra and a unique peptide spectra of 4 spectra.
In the same order, the values of “Sec61, alpha subunit 2 (from UniProt Q9H9S3 1-476)” are 11%, 2 spectra and 2 spectra.
For “THR interactor 12 (from UniProt Q14669 2-1992)” the same measures were 2%, 2 spectra and 2 spectra.
In assay [6], “VCP/p97/Cdc48 (from UniProt P55072 2-806)” came in with a % sequence coverage of 25%, a total peptide spectra of 14 spectra and a unique peptide spectra of 10 spectra. In assay [5], this substance gave a % sequence coverage of 7%, a total peptide spectra of 2 spectra and a unique peptide spectra of 2 spectra.
As to “proteasome 26S, non-ATPase, 2 (from UniProt Q13200 1-908)”, in assay [6], the % sequence coverage was 13%, the total peptide spectra was 8 spectra and the unique peptide spectra was 7 spectra. In assay [5], this substance came in with a % sequence coverage of 4%, a total peptide spectra of 2 spectra and a unique peptide spectra of 2 spectra.
In assay [6], “proteasome, beta type 1 (from UniProt O09061 28-240)” showed a % sequence coverage of 23%, a total peptide spectra of 3 spectra and a unique peptide spectra of 3 spectra.
As for “proteasome, beta type, 3 (from UniProt P49720 2-205)”, in assay [6], the % sequence coverage is 24%, the total peptide spectra came to 3 spectra and the unique peptide spectra worked out at 3 spectra.
In assay [6], “proteasome, beta type, 4 (from UniProt P28070 46-264)” showed a % sequence coverage of 16%, a total peptide spectra of 2 spectra and a unique peptide spectra of 2 spectra.
In assay [5], “ubiquitin protein ligase E3A (from UniProt Q05086 1-875) (enzyme)” came in with a % sequence coverage of 6%, a total peptide spectra of 2 spectra and a unique peptide spectra of 2 spectra.
In assay [5], “ubiquitin specific protease 9 (from UniProt Q93008 1-2554) (enzyme)” showed a % sequence coverage of 1%, a total peptide spectra of 3 spectra and a unique peptide spectra of 2 spectra.

Values taken from US20080014191A1.
